Data on two substances can be found in publication PMC8123688.

pKd: −log10 of the molar value.

For this assay, the target named is TSH receptor (TSHR) on human ML-1 cells (human (endogenous in ML-1)) (UniProt P16473). The assay can be described thus: radioligand binding; real-time kinetic binding assay with LigandTracer; 10^6 ML-1 cells seeded in a tilted Petri dish; 2 mL of 30 nM radiolabeled ligand in culture medium for 1 h, then medium without ligand to follow release; Kd from binding/release curve (GraphPad Prism).
Sequence of TSH receptor (TSHR) on human ML-1 cells (human (endogenous in ML-1)) (P16473 21-764): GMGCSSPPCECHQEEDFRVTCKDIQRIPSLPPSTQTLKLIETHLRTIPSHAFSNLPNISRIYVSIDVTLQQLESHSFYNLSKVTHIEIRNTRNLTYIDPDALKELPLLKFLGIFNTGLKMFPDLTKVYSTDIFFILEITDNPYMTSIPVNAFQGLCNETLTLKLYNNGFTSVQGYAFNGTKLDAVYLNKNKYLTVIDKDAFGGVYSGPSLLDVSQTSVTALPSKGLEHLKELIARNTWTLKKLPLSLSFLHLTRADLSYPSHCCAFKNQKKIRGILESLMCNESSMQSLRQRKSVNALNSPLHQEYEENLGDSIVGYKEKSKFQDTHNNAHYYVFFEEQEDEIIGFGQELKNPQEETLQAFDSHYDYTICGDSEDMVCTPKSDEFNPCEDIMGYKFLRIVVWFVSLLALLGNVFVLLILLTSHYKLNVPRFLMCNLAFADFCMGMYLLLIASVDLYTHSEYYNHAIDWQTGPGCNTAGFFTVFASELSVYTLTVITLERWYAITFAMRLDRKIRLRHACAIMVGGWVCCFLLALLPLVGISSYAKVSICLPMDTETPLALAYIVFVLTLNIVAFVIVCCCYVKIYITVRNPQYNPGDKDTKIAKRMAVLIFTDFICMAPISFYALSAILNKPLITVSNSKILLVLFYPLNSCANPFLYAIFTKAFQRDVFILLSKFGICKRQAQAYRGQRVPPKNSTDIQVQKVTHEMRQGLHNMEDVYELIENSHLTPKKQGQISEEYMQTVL

Sequence of 99mTc-HYNIC-TR1401, radiolabeled superagonist recombinant human TSH analogue TR1401 (P01215 25-116): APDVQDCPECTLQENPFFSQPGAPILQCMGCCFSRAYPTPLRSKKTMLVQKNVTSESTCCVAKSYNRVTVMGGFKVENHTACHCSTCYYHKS
Sequence of 99mTc-HYNIC-TR1401, radiolabeled superagonist recombinant human TSH analogue TR1401 (P01222 21-132): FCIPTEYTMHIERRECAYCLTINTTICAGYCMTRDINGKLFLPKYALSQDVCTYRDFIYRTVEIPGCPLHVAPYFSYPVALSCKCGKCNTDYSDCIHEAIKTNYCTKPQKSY
Sequence of 99mTc-HYNIC-TR1402, radiolabeled superagonist recombinant human TSH analogue TR1402 (P01215 25-116): as the sequence (P01215 25-116) above
Sequence of 99mTc-HYNIC-TR1402, radiolabeled superagonist recombinant human TSH analogue TR1402 (P01222 21-132): as the sequence (P01222 21-132) above

Regarding “99mTc-HYNIC-TR1401, radiolabeled superagonist recombinant human TSH analogue TR1401 (from UniProt P01215 25-116; P01222 21-132) (ligand)”, the pKd – broadly, the negative decadic logarithm of the Kd, by convention in mol/L – is 8.57.
Under “99mTc-HYNIC-TR1402, radiolabeled superagonist recombinant human TSH analogue TR1402 (from UniProt P01215 25-116; P01222 21-132) (ligand)” stands 9.30.
